Biological target: free 17K‐apo(a) variant (purified recombinant apolipoprotein(a) with 17 KIV domains) (human)
Assay: co-IP

**Q.** Which percent of HCV RNAs coimmunoprecipitated does the source give for “purified HCVcc, infectious hepatitis C virus particles (JFH1‐CS‐A4‐RLuc‐TM) (complex)” here?
**A.** 39.9%

Source: article PMC5488163
